Test results reported in PMC5839545, “CENP-C/H/I/K/M/T/W/N/L and hMis12 but not CENP-S/X participate in complex formation in the nucleoplasm of living human interphase cells outside centromeres” (PLoS ONE, 2018).

How the values were obtained:
Details in all cases: partners not purified
CENP-T-(s)-mCherry = molecular target: T1, CENP-T-(s)-mCherry (human, UniProt Q96BT3 1-561); assay: dual color fluorescence cross-correlation spectroscopy (DC-FCCS); EGFP and mCherry fusion proteins co-expressed in living interphase HEp-2 or U2OS cells; spots in the nucleoplasm free of kinetochores, focal volume bleached before; 37°C; 488 and 561 nm; corrected values are the measured ones times about two
T1 construct: CENP-T, human; called full-length CENP-T against its N-terminal domain; source: HEp-2 or U2OS cells, transfected by electroporation, in living cells; not shown: mCherry (short linker)

Nnf1-(s)-mCherry = molecular target: T2, Nnf1-(s)-mCherry (human, UniProt Q6P1K2 1-205); assay: as above
T2 construct: Nnf1 of the hMis12 complex, human; source: HEp-2 or U2OS cells, transfected by electroporation, in living cells; not shown: mCherry (short linker)
T2 sequence (looked up): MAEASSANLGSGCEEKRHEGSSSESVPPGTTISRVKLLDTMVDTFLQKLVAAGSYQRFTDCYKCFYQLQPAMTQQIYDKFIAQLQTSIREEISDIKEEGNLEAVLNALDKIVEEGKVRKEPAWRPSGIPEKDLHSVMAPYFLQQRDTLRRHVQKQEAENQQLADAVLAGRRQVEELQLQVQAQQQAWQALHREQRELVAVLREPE

mCherry-(s)-CENP-T = molecular target: T3, mCherry-(s)-CENP-T (human, UniProt Q96BT3 1-561); assay: as above
T3 construct: CENP-T, human; called wildtype against CENP-T^∆N; source: HEp-2 or U2OS cells (DC-FCCS) and HEK293 cells (SW-FCCS), transfected by electroporation, in living cells

mCherry-(s)-CENP-K = molecular target: T4, mCherry-(s)-CENP-K (human, UniProt Q9BS16 1-269); assay: as above
T4 construct: CENP-K, human; also called mCherry-CENP-K; source: HEp-2 or U2OS cells, transfected by electroporation, in living cells

mCherry-(s)-Nnf1 = molecular target: T5, mCherry-(s)-Nnf1 (human, UniProt Q6P1K2 1-205); assay: as above
T5 construct: Nnf1 of the hMis12 complex, human; source: HEp-2 or U2OS cells, transfected by electroporation, in living cells
T5 sequence (looked up): T2 sequence (looked up)

hMis12-(s)-mCherry = molecular target: T6, hMis12-(s)-mCherry (human, UniProt Q9H081 1-205); assay: as above
T6 construct: hMis12, human; source: HEp-2 or U2OS cells, transfected by electroporation, in living cells; not shown: mCherry (short linker)
T6 sequence (looked up): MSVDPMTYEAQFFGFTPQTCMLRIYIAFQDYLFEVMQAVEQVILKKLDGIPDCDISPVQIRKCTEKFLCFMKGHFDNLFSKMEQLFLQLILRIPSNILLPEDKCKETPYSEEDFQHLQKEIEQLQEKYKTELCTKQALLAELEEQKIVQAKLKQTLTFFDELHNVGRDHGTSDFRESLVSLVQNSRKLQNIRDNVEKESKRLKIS

mCherry-(s)-CENP-W = molecular target: T7, mCherry-(s)-CENP-W (human, UniProt Q5EE01 1-88); assay: single-wavelength fluorescence cross-correlation spectroscopy (SW-FCCS); EGFP and mCherry fusion proteins co-expressed in living interphase HEK293 cells; nucleoplasm; 37°C; 514 nm; effective (apparent) Kd from scatter plot (S) or histogram (H), corrected for non-fluorescent mCherry and observation volumes
T7 construct: CENP-W, human; source: HEp-2 or U2OS cells (DC-FCCS) and HEK293 cells (SW-FCCS), transfected by electroporation, in living cells

mCherry-(s)-Nsl1 = molecular target: T8, mCherry-(s)-Nsl1 (human, UniProt Q96IY1 1-281); assay: dual color fluorescence cross-correlation spectroscopy (DC-FCCS); EGFP and mCherry fusion proteins co-expressed in living interphase HEp-2 or U2OS cells; spots in the nucleoplasm free of kinetochores, focal volume bleached before; 37°C; 488 and 561 nm; corrected values are the measured ones times about two
T8 construct: Nsl1 of the hMis12 complex, human; source: HEp-2 or U2OS cells, transfected by electroporation, in living cells
T8 sequence (looked up): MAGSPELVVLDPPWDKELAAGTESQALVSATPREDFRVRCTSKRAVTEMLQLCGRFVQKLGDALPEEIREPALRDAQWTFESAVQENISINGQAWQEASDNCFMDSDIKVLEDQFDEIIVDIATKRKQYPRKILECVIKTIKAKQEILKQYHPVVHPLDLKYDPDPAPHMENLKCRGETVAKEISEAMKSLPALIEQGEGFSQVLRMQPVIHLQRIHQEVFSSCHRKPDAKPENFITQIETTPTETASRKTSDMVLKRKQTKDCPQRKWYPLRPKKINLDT

T7 sequence (Q5EE01 whole entry, the tested form may be a part): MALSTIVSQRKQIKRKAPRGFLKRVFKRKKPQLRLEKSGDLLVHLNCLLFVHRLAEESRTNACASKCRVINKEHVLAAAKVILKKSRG
T4 sequence (Q9BS16 whole entry): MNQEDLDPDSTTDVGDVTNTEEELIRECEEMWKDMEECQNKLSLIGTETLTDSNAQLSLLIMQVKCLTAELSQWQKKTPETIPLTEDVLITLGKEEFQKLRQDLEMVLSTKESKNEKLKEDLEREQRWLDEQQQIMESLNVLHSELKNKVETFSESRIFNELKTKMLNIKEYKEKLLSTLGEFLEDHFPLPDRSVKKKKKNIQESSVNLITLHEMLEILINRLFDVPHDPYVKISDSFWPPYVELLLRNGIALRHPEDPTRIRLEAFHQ

B1: hMis12-(s)-EGFP (natural protein, human, UniProt Q9H081 1-205, looked up)
chain: T6 sequence (looked up)
notes: hMis12, human; source: HEp-2 or U2OS cells, transfected by electroporation, in living cells; not shown: EGFP (short linker)
- cross-correlation, measured (%) (CENP-T-(s)-mCherry): 19%
- cross-correlation, measured (%) (Nnf1-(s)-mCherry): 31%
- cross-correlation, measured (%) (mCherry-(s)-CENP-T): 18%
- cross-correlation, measured (%) (mCherry-(s)-CENP-K): 18%

B2: EGFP-(s)-Nsl1 (natural protein, human, UniProt Q96IY1 1-281, looked up)
chain: T8 sequence (looked up)
notes: Nsl1 of the hMis12 complex, human; source: HEp-2 or U2OS cells, transfected by electroporation, in living cells
- cross-correlation, measured (%) (mCherry-(s)-Nnf1): 18%

B3: Nsl1-(s)-EGFP (natural protein, human, UniProt Q96IY1 1-281, looked up)
chain: T8 sequence (looked up)
notes: Nsl1 of the hMis12 complex, human; source: HEp-2 or U2OS cells, transfected by electroporation, in living cells; not shown: EGFP (short linker)
- cross-correlation, measured (%) (hMis12-(s)-mCherry): 36%

B4: EGFP-(s)-CENP-T^∆N (domain or fragment, human, UniProt Q96BT3 396-561, looked up)
chain: ASPESASSTPESLQARRHHQFLEPAPAPGAAVLSSEPAEPLLVRHPPRPRTTGPRPRQDPHKAGLSHYVKLFSFYAKMPMERKALEMVEKCLDKYFQHLCDDLEVFAAHAGRKTVKPEDLELLMRRQGLVTDQVSLHVLVERHLPLEYRQLLIPCAYSGNSVFPAQ
notes: CENP-T, human, C-terminal domain, aas 396-561, said to contain the histone-fold domain (aas 376-561); also called EGFP-(s)-CENP-T^396-561; source: HEK293 cells, transfected by electroporation, in living cells
- dimer, corrected (%) (mCherry-(s)-CENP-W): 24%
- dimer, uncorrected (%) (mCherry-(s)-CENP-W): 18.2%

B5: EGFP-(s)-Dsn1 (natural protein, human, UniProt Q9H410 1-356, looked up)
chain: MTSVTRSEIIDEKGPVMSKTHDHQLESSLSPVEVFAKTSASLEMNQGVSEERIHLGSSPKKGGNCDLSHQERLQSKSLHLSPQEQSASYQDRRQSWRRASMKETNRRKSLHPIHQGITELSRSISVDLAESKRLGCLLLSSFQFSIQKLEPFLRDTKGFSLESFRAKASSLSEELKHFADGLETDGTLQKCFEDSNGKASDFSLEASVAEMKEYITKFSLERQTWDQLLLHYQQEAKEILSRGSTEAKITEVKVEPMTYLGSSQNEVLNTKPDYQKILQNQSKVFDCMELVMDELQGSVKQLQAFMDESTQCFQKVSVQLGKRSMQQLDPSPARKLLKLQLQNPPAIHGSGSGSCQ
notes: Dsn1 of the hMis12 complex, human; source: HEp-2 or U2OS cells, transfected by electroporation, in living cells
- cross-correlation, measured (%) (mCherry-(s)-Nsl1): 24%
- cross-correlation, measured (%) (mCherry-(s)-Nnf1): 22%
- cross-correlation, measured (%) (hMis12-(s)-mCherry): 32%
